Assay results: patent US20120108492A1, “LIGAND-SPECIFIC NON-ANTIBODY COMPOUNDS THAT INHIBIT CR2 ACTIVATION AND METHODS OF USE THEREOF” (The Regents of the University of Colorado, priority 2008, published 2012)
Substitutions are numbered along the chain they refer to. Names may count otherwise.

B1: R28A: single-site mutant of recombinant MBP-CR2 SCR1-2 (protein)
chain: ISCGSPPPILNGRISYYSTPIAVGTVIAYSCSGTFRLIGEKSLLCITKDKVDGTWDKPAPKCEYFNKYSSCPEPIVPGGYKIRGSTPYRHGDSVTFACKTNFSMNGNKSVWCQANNMWGPTRLPTCVSVFPLE
modifications: left off: large carriers; small tags and cut ends
B2: T34A: single-site mutant of recombinant MBP-CR2 SCR1-2 (protein)
chain: B1 chain with A28R, T34A
modifications: left off: large carriers; small tags and cut ends
B3: Y64A: single-site mutant of recombinant MBP-CR2 SCR1-2 (protein)
chain: B1 chain with A28R, Y64A
modifications: left off: large carriers; small tags and cut ends
B4: S15P: single-site mutant of recombinant MBP-CR2 SCR1-2 (protein)
chain: B1 chain with S15P, A28R
modifications: left off: large carriers; small tags and cut ends
B5: K41A: single-site mutant of recombinant MBP-CR2 SCR1-2 (protein)
chain: B1 chain with A28R, K41A
modifications: left off: large carriers; small tags and cut ends
B6: K50A: single-site mutant of recombinant MBP-CR2 SCR1-2 (protein)
chain: B1 chain with A28R, K50A
modifications: left off: large carriers; small tags and cut ends
B7: M117A: single-site mutant of recombinant MBP-CR2 SCR1-2 (protein)
chain: B1 chain with A28R, M117A
modifications: left off: large carriers; small tags and cut ends
B8: T86A: single-site mutant of recombinant MBP-CR2 SCR1-2 (protein)
chain: B1 chain with A28R, T86A
modifications: left off: large carriers; small tags and cut ends
B9: Y68A: single-site mutant of recombinant MBP-CR2 SCR1-2 (protein)
chain: B1 chain with A28R, Y68A
modifications: left off: large carriers; small tags and cut ends
B10: K57A: single-site mutant of recombinant MBP-CR2 SCR1-2 (protein)
chain: B1 chain with A28R, K57A
modifications: left off: large carriers; small tags and cut ends
B11: S32A: single-site mutant of recombinant MBP-CR2 SCR1-2 (protein)
chain: B1 chain with A28R, S32A
modifications: left off: large carriers; small tags and cut ends
B12: R36A: single-site mutant of recombinant MBP-CR2 SCR1-2 (protein)
chain: B1 chain with A28R, R36A
modifications: left off: large carriers; small tags and cut ends
B13: K67A: single-site mutant of recombinant MBP-CR2 SCR1-2 (protein)
chain: B1 chain with A28R, K67A
modifications: left off: large carriers; small tags and cut ends
B14: N11A: single-site mutant of recombinant MBP-CR2 SCR1-2 (protein)
chain: B1 chain with N11A, A28R
modifications: left off: large carriers; small tags and cut ends
B15: L10A: single-site mutant of recombinant MBP-CR2 SCR1-2 (protein)
chain: B1 chain with L10A, A28R
modifications: left off: large carriers; small tags and cut ends
B16: R13A: single-site mutant of recombinant MBP-CR2 SCR1-2 (protein)
chain: B1 chain with R13A, A28R
modifications: left off: large carriers; small tags and cut ends

Key:
Type in all cases: binding
[1] = molecular target: EBV gp350 (Epstein-Barr virus, UniProt P03200); test: MBP-CR2 SCR1-2 mutant-EBV gp350 ELISA; design: DNA corresponding to residues 1-470 of EBV gp350/220; E. coli biotin carboxyl carrier protein (BCCP) fragment, residues 70-156; hexa-histidine (C); made in house; host or cells: human embryonic kidney 293f freestyle cells (pSecTag2/Hygro B); details: for EBV gp350 binding relative to wild-type CR2: mutant MBP-CR2 SCR1-2
EBV gp350, sequence (P03200 1-470): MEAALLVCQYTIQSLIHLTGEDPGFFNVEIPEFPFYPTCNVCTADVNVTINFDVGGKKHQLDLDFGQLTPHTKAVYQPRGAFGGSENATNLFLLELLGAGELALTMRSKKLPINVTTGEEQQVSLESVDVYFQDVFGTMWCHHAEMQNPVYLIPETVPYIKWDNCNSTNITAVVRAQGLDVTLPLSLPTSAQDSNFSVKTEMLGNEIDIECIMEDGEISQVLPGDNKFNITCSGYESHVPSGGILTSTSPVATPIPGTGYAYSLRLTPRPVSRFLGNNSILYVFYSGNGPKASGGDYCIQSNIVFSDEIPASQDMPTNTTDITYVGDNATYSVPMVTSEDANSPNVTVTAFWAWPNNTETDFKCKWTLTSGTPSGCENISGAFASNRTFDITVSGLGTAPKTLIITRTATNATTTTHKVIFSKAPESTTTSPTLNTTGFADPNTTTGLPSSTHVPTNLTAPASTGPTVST
Method: See Martin et al. (1991) J Exp Med 174:1299-311; Young et al. (2007) J Biol Chem 282:36614-36625; Guthridge et al. (2001) Biochemistry 40:5931-41; and Sarrias et al. (2001) J Immunol 167:1490-9. […] Young et al. (2007) J Biol Chem 282:36614-36625.
(§1) After coating, the plates were blocked using 0.1% BSA in a PBS solution, pH 7.4 for one hour at room temperature. The plates were then washed, and incubated with either wild-type or mutant MBP-CR2 SCR1-2, at concentrations ranging from 0.03125-2.0 μg/ml in PBS for one hour at room temperature. After further washing, wild-type or mutant MBP-CR2 binding was detected using commercially available horseradish peroxidase-conjugated anti-MBP mAb (New England Biolabs) according to the manufacturer's instructions.

[2] = tested on: anti-CR2 SCR1-2 mAb 629; test: MBP-CR2 SCR1-2-629 mAb ELISA; details: mutant MBP-CR2 SCR1-2 relative to wild-type; for % 629 mAb Bindng: plate-bound 629 mAb
Text: The excellent correlation observed between our cell-binding studies and the ELISA analyses provides proof-of-principle that the MBP-CR2 SCR1-2 ELISA is an effective means of characterizing CR2-ligand interactions. […] See Asokan et al. (2006) J Immunol 177:383-94; Guthridge et al. (2001) J Immunol 167:5758-66; Young et al. (2007) J Biol Chem 282:36614-36625. […] This epitope overlaps extensively with the binding surface on CR2 described above for EBV gp350, and also with the previously described binding sites for C3dg and C3d. Hannan et al. (2005) J Mol Biol 346:845-58; and Young et al. (2007) J Biol Chem 282:36614-36625.
as §1

[3] = tested on: anti-CR2 SCR1-2 monoclonal antibody 171; test: MBP-CR2 SCR1-2-171 mAb ELISA; details: mutant MBP-CR2 SCR1-2 relative to wild-type; for % 171 mAb Binding: plate-bound 171 mAb
Method: See Asokan et al. (2006) J Immunol 177:383-94; Guthridge et al. (2001) J Immunol 167:5758-66; Young et al. (2007) J Biol Chem 282:36614-36625. […] Hannan et al. (2005) J Mol Biol 346:845-58; and Young et al. (2007) J Biol Chem 282:36614-36625.
as §1

Molecule | EBV gp350 binding relative to wild-type CR2 [1] | Weighting (629 mAb) [2] | % 629 mAb Bindng [2] [%] | Weighting (171 mAb) [3] | % 171 mAb Binding [3] [%] | decrease in EBV gp350 binding ([1]; reduction relative to wild-type MBP-CR2 SCR1-2)
B1 | significantly decreased capacity | ++++ (++++>90%) | 103.1 | ++++ (++++>90%) | 103.5 | –
B2 | – | +++ (+++89.9-70%) | 84.9 | − (−19.9-0%) | 12.4 | –
B3 | – | +++ (+++89.9-70%) | 82.0 | − (−19.9-0%) | 5.8 | –
B4 | major reduction in EBV gp350 binding | ++++ (++++>90%) | 91.7 | ++++ (++++>90%) | 108.5 | –
B5 | significantly decreased capacity | ++++ (++++>90%) | 97.5 | ++++ (++++>90%) | 97.3 | –
B6 | – | +++ (+++89.9-70%) | 87.5 | ++++ (++++>90%) | 94.4 | –
B7 | – | ++++ (++++>90%) | 113.8 | ++++ (++++>90%) | 97.2 | –
B8 | – | +++ (+++89.9-70%) | 85.6 | +++ (+++89.9-70%) | 89.6 | –
B9 | – | ++++ (++++>90%) | 102.3 | ++++ (++++>90%) | 92.1 | –
B10 | significantly decreased capacity | +++ (+++89.9-70%) | 85.5 | ++++ (++++>90%) | 91.9 | –
B11 | – | ++++ (++++>90%) | 117.8 | +++ (+++89.9-70%) | 77.5 | –
B12 | – | ++++ (++++>90%) | 113.9 | − (−19.9-0%) | 19.8 | –
B13 | – | ++++ (++++>90%) | 107.2 | +++ (+++89.9-70%) | 87.7 | approximately 20%
B14 | – | +++ (+++89.9-70%) | 87.5 | + (+39.9-20%) | 24.1 | –
B15 | failed to inhibit EBV gp350 binding | ++++ (++++>90%) | 113.2 | ++++ (++++>90%) | 94.7 | –
B16 | – | ++++ (++++>90%) | 108.1 | − (−19.9-0%) | 15.6 | –
